# The nanobody polyreactivity screen of Harvey et al. (2022)
# Assay: yeast display, Sf9 membrane polyspecificity reagent, FACS + sequencing; frameworks hold sequencing errors
# Summary of the method: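 Nanobodies from a synthetic yeast display library (Saccharomyces cerevisiae BJ5465), induced 36–48 hours with galactose, were stained 1 hour at 4 °C with 10% biotinylated, detergent-solubilized Sf9 membrane reagent, enriched on streptavidin microbeads, then FACS-sorted. Anti-HA (expression) and streptavidin (reagent binding) fluorescence set low and high (top ~1%) gates. Polyreactivity labels come from the gate of origin. Genes were colony-PCR amplified, MiSeq 2 × 250 sequenced and filtered by CDR length.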
row,Sequence,polyreactivity (PSR sort gate)
1,QVQLVESGAGLVKAGGSLRLSCAASGIIFGNYAMGLYRQAPGKEREFVAAISGSGDSTYYADSVKGRFTISRDNAKNTVYLQMNSLKPEVTAVYYCAADWTLVYYHEDYWGQGTQVTVSS,high polyreactivity
2,QVQLVESGAGLVQAAGSLRLSCAASVSTFYTYAMGRYRQAPGKERELVADIRWRGGSTNYADSVKGRFTISRDNAKNTVYLQMNSLTSEDTAVYYCALRYYYYGASYYYWGHGTQVTVSS,high polyreactivity
3,QVQLVESGAGLVQAGASLRLSCAASGRIFPWNAMGWSRQEPGKERELVAAISFSAGRTYYADSVKGRFTISRDNAKNTVYLQMNSLKPEDTAVYYCNARIGSRWVWTGIICYEYWGKGTQVTVSS,low polyreactivity
4,QVQLVESGAGLVQAGGSLLLSCAASAFIFTPYTKGWYRQAPGKETELVAAITDGSSTYYADSVKRRFTISRDNAQNTVYVQMNSLKPEDTAVYYCNADTLTTTRRFNPYDYRGQGTQVTVSS,low polyreactivity
5,QVQLVESGAGLVQAGGSLRISCAASGIIFTYYPMGWYRQAPGKERELVASISSSGTSTYYADSVKGRFTISRDNAKNTVYLQLNSLKPEDTAVYYCAKSYWGDNSGFPGTPYDYWGQGTQVTVSS,low polyreactivity
6,QVQLVESGAGLVQAGGSLRISCAASGRIFHYALGWYRQAPGKERELVAGISKRGGSTYYADSVKGRFTISRDNAKNTVYLQMNSLKPEDTAVYYCAAGRAYDGTKHDYWGQGTQVTVSS,high polyreactivity
7,QVQLVESGAGLVQAGGSLRISCAASGRTFGLNDMAWYRPAPGKERELVAAITWSDDDTYYADSVKGRFTISRDNAKNTVYLQMNSLKPEDTAVYYCAKSRYDYTKTECGYWGQGTEVTVSS,low polyreactivity
8,QVQLVESGAGLVQAGGSLRLCCAASGFIFRVYAMGLYRQAPGKERELVAAISDSGGSTTYADSVKGRFTISRDNAKNTVYLQMNSLKPEDTAVYYCAAKLPRSRYRGVDYWGQGTQVTVSS,low polyreactivity
9,QVQLVESGAGLVQAGGSLRLSCAASGFAFYLYAMGWYRQAPGIERELVAAISSRGGNTYYADTVKGRFTISRDYAKNTVYLPMISLKPEDNAVYYCAAEFWNWYGDYDYWGQGTQVTVSS,high polyreactivity
10,QVQLVESGAGLVQAGGSLRLSCAASGFIFAGNAMGWYIQAPGKERELVAAITRRGGSTHYADSVKGRFTISRDKAKNTVYLQMNSLKPEDTAVYYCNAAVQPPLSDYWGQGTQVTVSS,low polyreactivity
11,QVQLVESGAGLVQAGGSLRLSCAASGFTFYRYAMGWYRQAPGKEREFLAAITASGGSTNYADSVKGRFTISRDNAKNTVYLQMNSLKPEDTAVYYCAARQSRDFRYRGFYYWGQGTQVTVSS,high polyreactivity
12,QVQLVESGAGLVQAGGSLRLSCAASGIILRYYALGWYRQAPGKERELVAAISSGGRTYYADSVKGRFTISRDNAKNPVNLLMNSLTPEDTEVYSCAADDTRGREEYDYWGQGTQVTGSS,high polyreactivity
13,QVQLVESGAGLVQAGGSLRLSCAASGITFGRYTMGWYRQAPGKERELVAAITNGDITYYADSVKGRFTISRDNAKNTVYLQMNSLKPEDTAVYYCAADRSFWYDYWGQGTQVTVSS,high polyreactivity
14,QVQLVESGAGLVQAGGSLRLSCAASGNIFVEYAKGWYRQAPGKERELVAAITNTGGRTHYADSVKGRFTISRDNAKNTVYFQMNSLKPEDTAVYDCASRRTGYYGTRDYWGQVTQVTVSS,high polyreactivity
15,QVQLVESGAGLVQAGGSLRLSCAASGRIFAYNAMGWYRQAPGKERELVAGITIRGGRTYYADSVKGRFTISRYNAKNTVYLQMNSLKPEDTAVYYCNARGWYEYGWGQGTQVTVSS,high polyreactivity
16,QVQLVESGAGLVQAGGSLRLSCAASGRIFPGYVMGWYRQAHGKERELVAAITRGGSTYYADSVKGRFTISRDNAKNTVYLQMNSLKPDDTAVYYCAAKHSHIHYNYWGQGTQVTVSS,low polyreactivity
17,QVQLVESGAGLVQAGGSLRLSCAASGRILSHYAMGWYRQAPGKERELVATINSGGSTYYADSVKGRFTISRDNAKNTVYLQMNSLKPEDTAVYYCAVDYAVSYAGWVLRYDYWGQATQVTVSS,low polyreactivity
